Data from patent US6994974B1, “Intracellular amyloid-beta binding (ERAB) polypeptide-related assays” (The trustees of Columbia University in the city of New York, priority 1997, dated 2006).

Key:
[1] = test system: ERAB polypeptide in neuroblastoma cells; test: Cellular distribution of ERAB polypeptide in neuroblastoma cells by immunofluorescence; format: cell-based, human; conditions: peptide added to neuroblastoma cells; amyloid-beta peptide (1–42) 1 μM; FIGS. 4F, 4G
Procedure: FIGS. 4A, 4B, 4C, 4D, 4E, 4F, 4G, 4H, and 4I. Expression of ERAB polypeptide in cultured cells: localization to the endoplasmic reticulum and change in distribution following addition of amyloid-beta peptide. FIG. 4A. Immunoblotting of ERAB polypeptide in human neuroblastoma SK-N-SH (FIG. 4A, lane 1) and HeLa (FIG. 4A, lane 2) cells. Cell extracts (50 μg protein/lane) were subjected to immunoblotting using anti-ERAB polypeptide IgG (3 μg/ml). FIGS. 4B, 4C, and 4D. […] Scale bar=25 μm. FIG. 4E. Subcellular fractionation of ERAB nucleic acid-transfected human neuroblastoma cells. Transfected cells (5×10^8) were pelletted and fractionated in a series of sucrose steps (38%, 30% and 20%) by ultracentrifugation (100,000 for 3 hrs). […] Neuroblastoma cells were incubated in buffer alone or in the presence of amyloid-beta peptide (1–42; 1 μM), and the distribution of ERAB polypeptide was determined by immunofluorescence with anti-ERAB polypeptide IgG. […]
These observations also posed an apparent paradox, for, how could amyloid-beta peptide, most of which is extracellular, interact with a polypeptide associated with endoplasmic reticulum? […] Second, it was determined that ERAB polypeptide became associated with amyloid-beta peptide, and that amyloid-beta peptide-induced effects on ERAB polypeptide were not likely mediated by an indirect mechanism. […]

TrcHis-ERAB polypeptide = molecular target: T1, TrcHis-ERAB polypeptide (Homo sapiens, UniProt Q99714); test: Binding of ^125I-amyloid-beta peptide (1–40) to TrcHis-ERAB polypeptide adsorbed to microtiter wells; conditions: unlabelled competitor at 10 μM; tracer 100 nM; FIG. 2E
T1 construct: made in house; host or cells: E. coli
T1 sequence (Q99714 1-261): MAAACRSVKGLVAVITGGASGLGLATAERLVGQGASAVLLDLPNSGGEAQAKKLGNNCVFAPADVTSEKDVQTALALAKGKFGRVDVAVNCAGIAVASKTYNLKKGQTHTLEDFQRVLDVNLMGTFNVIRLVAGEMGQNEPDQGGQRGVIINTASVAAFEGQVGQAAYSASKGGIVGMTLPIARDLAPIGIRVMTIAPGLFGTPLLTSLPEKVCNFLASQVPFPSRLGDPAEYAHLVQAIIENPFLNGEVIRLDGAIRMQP
Procedure: FIGS. 2A, 2B, 2C, 2D, 2E, 2F, and 2G. […] FIG. 2A. SDS-PAGE (12%; reduced) followed by immunoblotting of TrcHis-ERAB polypeptide (FIG. 2A, lane 1; 2 μg) and TrcHis-chloramphenicol acetyltransferase (CAT; FIG. 2A, lane 2; 2 μg) fusion proteins using anti-ERAB polypeptide IgG (3 μg/ml). […] FIGS. 2B and 2C. […] Binding was analyzed by nonlinear least squares analysis using the method of Klotz and Hunston (60). FIG. 2E. […] FIGS. 2F and 2G. […] 0 indicates wells coated with albumin alone. […] Control TrcHis-CAT construct (Invitrogen) was also used to transform E. coli and the fusion protein was purified as above. Antibody to ERAB polypeptide was prepared by immunizing rabbits with ERAB polypeptide-derived peptides, corresponding to residues 100–116 and 133–147, conjugated to keyhole limpet hemocyanin. […] (for ERAB polypeptide) or overnight at 4° C. […] Unbound radioactivity was removed by washing wells five times with ice cold phosphate-buffered saline containing Tween 20 (0.05%), and bound radioactivity was eluted by incubation with Nonidet P-40 (1%).

amyloid-beta peptide (1–42): exogenous amyloid-beta peptide (1–42)
Change in cellular distribution of ERAB polypeptide [1]: marked change in the cellular localization

amyloid-beta peptide (1–20): synthetic amyloid-beta peptide (1–20)
Competition for ^125I-amyloid-beta peptide (1–40) binding to TrcHis-ERAB polypeptide (TrcHis-ERAB polypeptide): blocked binding

Arg-Gly-Asp-Ser (RGDS)
Competition for ^125I-amyloid-beta peptide (1–40) binding to TrcHis-ERAB polypeptide (TrcHis-ERAB polypeptide): had no effect

amyloid-beta peptide (25–35): synthetic amyloid-beta peptide (25–35) (GSNKGAIIGLM)
Competition for ^125I-amyloid-beta peptide (1–40) binding to TrcHis-ERAB polypeptide (TrcHis-ERAB polypeptide): had no effect
